Data taken from patent US7157092B1, “Acyl pseudodipeptides, preparation method and pharmaceutical compositions containing same” (Om Pharma, priority 1998, dated 2007).

Tested on: ovalbumin
Assay: Subcutaneous immunization with ovalbumin antigen: specific serum immunoglobulins (ELISA)
Format: in vivo, BALB/c mice
Settings: s.c. injections days 0 and 14, ovalbumin 50 μg, adjuvant 50 μg per injection, ± SD
Procedure: To this end, 50 BALB/c mice (females, aged 8 weeks at the beginning of treatment) were divided into 5 groups as follows:
Antigen: An ovalbumin stock solution is prepared at a concentration of 0.5 mg/ml in 0.9% NaCl.
The negative control consists of a 0.9% NaCl solution without antigen.
Antigen-Adjuvant mixture: Adjuvants are allowed to stand for 20 minutes at 37° C. before vortex treatment for 3 minutes. Then the antigen and (0.9%) NaCl are added as specified in the above Table, and the antigen/adjuvant mixture is vortexed briefly before placing it on a rotary stirrer for 15 minutes at room temperature, then the whole mixture is vortexed for 3 minutes.
Immunization regimen: Injections are scheduelled on days 0 and 14. The mixtures stated in the preceeding table are administered by subcutaeous route (75 μl on the side, 150 μl in total per animal). Blood sampling is scheduelled on days 14 and 28 (orbital puncture).
Assay for anti-ovalbumin immunoglobulins: The following serum Immunolglobulins which are specifically directed against ovalbumin are assayed in duplicate by ELISA: IgG1, IgG2a, and IgM. Briefly stated, microtiter plates (NUNC Immunoplate, Roskilde, DK) are incubated (overnight coating) at 40C together with 100 μl ovalbumin (0.5 μg) in bicarbonate buffer pH 9.6). After washing with 0.5% Tween-20 (Merck Hohenbrunn, D), sera are diluted 50-, 200- and 800-fold (diluting solution: phosphate buffered saline (PBS)+1% bovine serum albumin (BSA, Sigma, St. Louis, Mo., USA)+0.02% Tween-20)). 100 μl of each dilute serum sample are added to the wells. Incubation lasts 45 minutes at 37° C.
After a second washing step, IgG1, IgG2a and IgM specifically directed to ovalbumin are incubated for 30 minutes at 37° C. together with 100 μl of anti-IgG1 antibodies (anti-mouse rat antibody)-peroxydase conjugate (Serotec, Oxford, UK), IgG2a-peroxydase conjugate (Pharmingen, San Diego, Calif., USA) and IgM-biotin conjugate (Pharmingen, San Diego, Calif., USA), diluted beforehand in PBS/BSA/Tween buffer (250-, 1000-, 500-fold dilutions, respectively). For IgM, after an extra washing step, a 3rd incubation step is required (30 min. at 37° C.) with a 1:100 dilute solution of streptavidin-peroxydase conjugate (Dako, Glostrup, DK).
After the washing step, 100 μl of a phenylene 1,2-diamine solution (OPD, Merck, Darmstadt, GFR) are added to detect peroxydase-coupled anti-IgG1 and anti-IgG2 secondary antibodies (whereas for IgM, the reagent being used is 3′, 3′, 5′,5′-tetramethylbenzidine (TMB, Sigma, St. Louis, Mo., USA). After a 20 minute incubation period at room temperature, the reaction is stopped by adding 100 μl of 2N H2SO4. Absorbance values are read at 490 nm with a Bio-Rad 3550 model plate reader
Results of each reading at 490 nm are given in arbitrary units (A.U.) per ml. This is achieved by comparing each sample with a standard prepared from different dilutions of a sample pool collected from group B at day 28 (animals injected with ovalbumin alone). As clearly understood by this term, the sample pool diluted 50-fold is at a concentration of 1000 A.U./ml. Individual results are then corrected for the corresponding dilution factor (50, 200, or 800 times). Only the mean values of each group and the standard deviation (SD) are herein reported.

B1: ova: ovalbumin antigen (Fluka Chemie), injected alone (protein, UniProt P01012 2-386, looked up)
Ovalbumin: GSIGAASMEFCFDVFKELKVHHANENIFYCPIAIMSALAMVYLGAKDSTRTQINKVVRFDKLPGFGDSIEAQCGTSVNVHSSLRDILNQITKPNDVYSFSLASRLYAEERYPILPEYLQCVKELYRGGLEPINFQTAADQARELINSWVESQTNGIIRNVLQPSSVDSQTAMVLVNAIVFKGLWEKAFKDEDTQAMPFRVTEQESKPVQMMYQIGLFRVASMASEKMKILELPFASGTMSMLVLLPDEVSGLEQLESIINFEKLTEWTSSNVMEERKIKVYLPRMKMEEKYNLTSVLMAMGITDVFSSSANLSGISSAESLKISQAVHAAHAEINEAGREVVGSAEAGVDAASVSEEFRADHPFLFCIKHIATNAVLFFGRCVSP
- Immunoglobulins specifically raised against ovalbumin of IgG1 subclass (Day 14): 728 ± 589 Arbitrary units/ml
- Immunoglobulins specifically raised against ovalbumin of IgG2a subclass (Day 14): 5201 ± 1880 Arbitrary units/ml
- Immunoglobulins specifically raised against ovalbumin of IgM subclass (Day 14): 19423 ± 13778 Arbitrary units/ml
- Immunoglobulins specifically raised against ovalbumin of IgG1 subclass (Day 28): 47743 ± 46294 Arbitrary units/ml
- Immunoglobulins specifically raised against ovalbumin of IgG2a subclass (Day 28): 73162 ± 107954 Arbitrary units/ml
- Immunoglobulins specifically raised against ovalbumin of IgM subclass (Day 28): 47998 ± 34035 Arbitrary units/ml
